According to paper PMC10641069, “Intra- and inter-molecular regulation by intrinsically-disordered regions governs PUF protein RNA binding” (Nature Communications, 2023):
Positions count from the first letter of the chain named. Several values for one entry are separate records, joined by “and”; a condition that tells them apart may be missing. Equal entries are not always repeated. Where two headings read alike, the source gives them in different places.

B1: LST-1 B peptide (LST-1 residues 67-98) (peptide, UniProt P91820 67-98, looked up)
chain: SSSPQQRSGLRSQKLHLTYIEKNKRVRAMIPQ
notes: The tag was cleaved with Ulp1 protease; also called LST-1^67–98; source: E. coli, purified (Ni-NTA, heparin, Superdex 75); not shown: His6-SUMO, N-terminal, cleaved
B2: FBF-2 RBD + CT (FBF-2 residues 164-632) (domain or fragment, C. elegans, UniProt Q09312 164-632, looked up)
chain: SNNVLPTWSLDSNGEMRSRLSLSEVLDSGDLMKFAVDKTGCQFLEKAVKGSLTSYQKFQLFEQVIGRKDDFLKLSTNIFGNYLVQSVIGISLATNDDGYTKRQEKLKNFISSQMTDMCLDKFACRVIQSSLQNMDLSLACKLVQALPRDARLIAICVDQNANHVIQKVVAVIPLKNWEFIVDFVATPEHLRQICSDKYGCRVVQTIIEKLTADSMNVDLTSAAQNLRERALQRLMTSVTNRCQELATNEYANYIIQHIVSNDDLAVYRECIIEKCLMRNLLSLSQEKFASHVVEKAFLHAPLELLAEMMDEIFDGYIPHPDTGKDALDIMMFHQFGNYVVQCMLTICCDAVSGRRQTKEGGYDHAISFQDWLKKLHSRVTKERHRLSRFSSGKKMIETLANLRSTHPIYELQSSGHDSFKTDYFSTASEHDGPELEKNGIEEGSLMLEPRSNKSSVSVKFSSSGSHGDD
notes: The tag was cleaved with Ulp1 protease; also called FBF-2^164–632; wild type RBD + CT; source: E. coli BL21-CodonPlus (DE3)-RIL, purified (Ni-NTA, heparin, Superdex 75); not shown: His6-SUMO, N-terminal, cleaved

Columns and labels:
[1] = target: T1, FBF-2 RBD + CT L610A (C. elegans, UniProt Q09312 164-632, L610A); assay: ITC; peptide (100–400 µM) titrated from the syringe into the cell containing FBF-2 (10–30 µM); 20 °C; 20 mM HEPES pH 7.4, 150 mM NaCl, 0.5 mM TCEP; no RNA; one-site model; mean of two replicates; conditions: both partners purified
T1 construct: source: E. coli, expressed and purified like wild type proteins; not shown: His6-SUMO, N-terminal, cleaved
T1 sequence (looked up): B2 chain with L447A

[2] = target: B2; assay: as above; conditions: both partners purified
[3] = target: T2, FBF-2 RBD + CT Loop6A (C. elegans, UniProt Q09312 164-632, E592A | D594A | E597A | E599A | E604A | E605A); assay: as above; conditions: both partners purified
T2 construct: source: E. coli, expressed and purified like wild type proteins; not shown: His6-SUMO, N-terminal, cleaved
T2 sequence (looked up): B2 chain with E429A, D431A, E434A, E436A, E441A, E442A

[4] = target: B2; assay: cell-based or functional assay
[5] = target: T3, FBF-2 RBD + CT (FBF-2 residues 164-632) (C. elegans, UniProt Q09312 164-632); assay: ITC
T3 chain: B2 chain

[6] = target: T4, FBF-2 RBD + CT L610A (C. elegans, UniProt Q09312 164-632, L610A); assay: ITC
T4 sequence: B2 chain with L447A

[7] = target: T5, FBF-2 RBD (FBF-2 residues 164-575) (C. elegans, UniProt Q09312 164-575); assay: ITC
T5 chain: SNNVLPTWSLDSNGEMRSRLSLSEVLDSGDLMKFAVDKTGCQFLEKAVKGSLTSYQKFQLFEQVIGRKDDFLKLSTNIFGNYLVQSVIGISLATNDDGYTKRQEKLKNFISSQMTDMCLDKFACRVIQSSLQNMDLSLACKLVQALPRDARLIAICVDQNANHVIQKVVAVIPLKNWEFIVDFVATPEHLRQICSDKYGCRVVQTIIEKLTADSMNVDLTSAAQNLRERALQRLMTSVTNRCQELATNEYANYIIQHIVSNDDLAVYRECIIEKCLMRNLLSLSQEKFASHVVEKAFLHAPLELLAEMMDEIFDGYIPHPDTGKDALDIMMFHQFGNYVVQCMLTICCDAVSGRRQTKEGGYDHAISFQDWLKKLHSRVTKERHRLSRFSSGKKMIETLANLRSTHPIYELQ

[8] = target: T6, FBF-2 RBD + CT Loop6A (C. elegans, UniProt Q09312 164-632, E592A | D594A | E597A | E599A | E604A | E605A); assay: ITC
T6 sequence: B2 chain with E429A, D431A, E434A, E436A, E441A, E442A

[9] = target: T5, FBF-2 RBD (FBF-2 residues 164-575); assay: ITC
[10] = target: the molecule itself; assay: crystal structure; FBF-2 RBD + CT with cFBE RNA (5′-CUGUGAAUG-3′), 2.1 Å; CT residues 607-613 seen bound to the RBD of the same construct (intramolecular by the paper's words)
[11] = target: T7, FBF-2 RBD+CT (Caenorhabditis elegans, UniProt Q09312 164-632); assay: SPR; kon 7.1e4 M-1 s-1, koff 4.42e-3 s-1; EMSA: FBF-2 in 20 mM HEPES pH 7.4, 150 mM NaCl, 0.5 mM TCEP mixed 1:1 with 5 nM final RNA in 10 mM HEPES pH 7.4, 0.01% Tween 20, 0.1 mg/ml BSA, 0.1 mg/ml yeast; conditions: protein: recombinant; tags: none (His6-SUMO removed with Ulp1); label: 3'-biotin
T7 sequence: B2 chain

[12] = target: T8, FBF-2 RBD (Caenorhabditis elegans, UniProt Q09312 164-575); assay: SPR; kon 13.6e4 M-1 s-1, koff 0.86e-3 s-1; EMSA: FBF-2 in 20 mM HEPES pH 7.4, 150 mM NaCl, 0.5 mM TCEP mixed 1:1 with 5 nM final RNA in 10 mM HEPES pH 7.4, 0.01% Tween 20, 0.1 mg/ml BSA, 0.1 mg/ml yeast; conditions: protein: recombinant; tags: none (His6-SUMO removed with TEV protease); label: 3'-biotin
T8 sequence: T5 chain

[13] = target: T9, FBF-2 RBD+CT L610A (Caenorhabditis elegans, UniProt Q09312 164-632, L610A); assay: SPR; kon 15.5e4 M-1 s-1, koff 1.36e-3 s-1; EMSA: FBF-2 in 20 mM HEPES pH 7.4, 150 mM NaCl, 0.5 mM TCEP mixed 1:1 with 5 nM final RNA in 10 mM HEPES pH 7.4, 0.01% Tween 20, 0.1 mg/ml BSA, 0.1 mg/ml yeast; conditions: protein: recombinant; tags: none (His6-SUMO removed with Ulp1); label: 3'-biotin
T9 sequence: B2 chain with L447A

[14] = target: T10, FBF-2 RBD+CT Y479A (Caenorhabditis elegans, UniProt Q09312 164-632, Y479A); assay: SPR; kon 10.2e4 M-1 s-1, koff 1.18e-3 s-1; EMSA: FBF-2 in 20 mM HEPES pH 7.4, 150 mM NaCl, 0.5 mM TCEP mixed 1:1 with 5 nM final RNA in 10 mM HEPES pH 7.4, 0.01% Tween 20, 0.1 mg/ml BSA, 0.1 mg/ml yeast; conditions: protein: recombinant; tags: none (His6-SUMO removed with Ulp1); label: 3'-biotin
T10 sequence: B2 chain with Y316A

[15] = target: T11, FBF-2 RBD+CT Loop6A (Caenorhabditis elegans, UniProt Q09312 164-632, E592A;D594A;E597A;E599A;E604A;E605A); assay: SPR; kon 10.9e4 M-1 s-1, koff 0.94e-3 s-1; EMSA: FBF-2 in 20 mM HEPES pH 7.4, 150 mM NaCl, 0.5 mM TCEP mixed 1:1 with 5 nM final RNA in 10 mM HEPES pH 7.4, 0.01% Tween 20, 0.1 mg/ml BSA, 0.1 mg/ml yeast; conditions: protein: recombinant; tags: none (His6-SUMO removed with Ulp1); label: 3'-biotin
T11 sequence: B2 chain with E429A, D431A, E434A, E436A, E441A, E442A

[16] = target: T7, FBF-2 RBD+CT; assay: crystal structure; 2.1 A; 30% PEG 400, 0.1 M Tris pH 8.5; EMSA: FBF-2 in 20 mM HEPES pH 7.4, 150 mM NaCl, 0.5 mM TCEP mixed 1:1 with 5 nM final RNA in 10 mM HEPES pH 7.4, 0.01% Tween 20, 0.1 mg/ml BSA, 0.1 mg/ml yeast; conditions: protein: recombinant; tags: none (His6-SUMO removed with Ulp1)

Question: With B1 as the binder, how does the Kd [1] read?
Answer: 60 nM

Question: What about the Kd [2] of the same binder?
Answer: 2700 nM

Question: Does B1 bind [3]?
Answer: binds

Question: What about the “RNA-binding affinity of FBF-2 RBD + CT for gld-1 FBEa RNA by EMSA in the presence of 50 µM LST-1 B” value [4] of the same binder?
Answer: 5 fold

Question: And the Kd [5]?
Answer: 2100 nM and 3300 nM

Question: What about the Kd [6] of the same binder?
Answer: 46 nM and 77 nM

Question: And the Kd [7]?
Answer: 46 nM and 45 nM

Question: And the Kd [8]?
Answer: 1300 nM and 1100 nM

Question: And the Kd [9]?
Answer: 50 nM

Question: Does B2 bind [10]?
Answer: binds

Question: AUCAUGUGCCAUACA (ssRNA) [gld-1 FBEa RNA (SPR)] was tested. Which Kd [11] did it give?
Answer: 65.1 ± 21.1 nM

Question: What about the Kd [12] of the same binder?
Answer: 6.6 ± 2.3 nM

Question: What about the Kd [13] of the same binder?
Answer: 9.4 ± 3.6 nM

Question: What about the Kd [14] of the same binder?
Answer: 12.9 ± 6.4 nM

Question: And the Kd [15]?
Answer: 9.5 ± 4.2 nM

Question: Does CUGUGAAUG (ssRNA) [cFBE RNA] bind [16]?
Answer: binds
